Measured values published in article PMC6018903.

Biological target: OsSEC3A_C (amino acids 521-888)-NLuc (rice (Oryza sativa))
Assay: split reporter (BiFC, NanoBiT); split firefly luciferase complementation, NLuc and CLuc fusions under the 35S promoter co-expressed in N. benthamiana leaves, read 3 d after infiltration

- fold LUC activity over the negative vector controls: 15 fold
Substance: CLuc-OsSNAP32 (natural protein)
